The values that follow come from the supplement of paper PMC9112550, “Optimization of the antimicrobial peptide Bac7 by deep mutational scanning” (BMC Biology, 2022).

The subject of this series is Escherichia coli TOP10. As to the kind of experiment: shrunken log2 fold change of peptide-encoding DNA abundance (4.5 h post-induction vs induction); higher = less antimicrobial activity (less host growth inhibition). The conditions noted are these: time post-induction: 4.5 h; library: site-saturation at positions 5, 18, 19, 20.
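Note: peptides expressed intracellularly from a pBAD plasmid library in pooled LB shake-flask culture, induced with 0.3% L-arabinose, DNA abundance read by NGS, three biological replicates, DESeq2 with apeglm shrinkage.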

As to RRIRGRPPRLPRPRPRPHHSPRP, the “shrunken log2 fold change” value was -0.196.

With RRIRCRPPRLPRPRPRPKEMPRP, the “shrunken log2 fold change” value was determined as 0.0303.

With RRIRVRPPRLPRPRPRPFVPPRP, the “shrunken log2 fold change” value is -0.0478. Then RRIRCRPPRLPRPRPRPEHFPRP, with -0.0319. Then RRIRSRPPRLPRPRPRPCIYPRP, with -0.847. RRIRDRPPRLPRPRPRPKPLPRP: the “shrunken log2 fold change” value was 0.101. Then RRIRKRPPRLPRPRPRPNGSPRP, with 0.0677. To RRIRFRPPRLPRPRPRPPAMPRP belongs 0.775. Then RRIRHRPPRLPRPRPRPVSNPRP, with -0.222; and RRIRERPPRLPRPRPRPQEPPRP, with -0.0182; and RRIRTRPPRLPRPRPRPLCAPRP, with 0.0615. For RRIRTRPPRLPRPRPRPPIDPRP, the “shrunken log2 fold change” value was -0.231. Regarding RRIRPRPPRLPRPRPRPKSPPRP, the “shrunken log2 fold change” value was -0.12. To RRIRLRPPRLPRPRPRPITSPRP belongs 0.0662. To RRIRIRPPRLPRPRPRPQKAPRP belongs 0.0173; to RRIRNRPPRLPRPRPRPLCNPRP, -0.324.

Consider RRIRDRPPRLPRPRPRPSDFPRP, for which the “shrunken log2 fold change” value is 0.259. Regarding RRIRARPPRLPRPRPRPHCDPRP, the “shrunken log2 fold change” value is 0.214. For RRIRHRPPRLPRPRPRPPPCPRP, the “shrunken log2 fold change” value was determined as 0.603. Then RRIRPRPPRLPRPRPRPWEHPRP, with -0.0525; and RRIRARPPRLPRPRPRPVGPPRP, with 0.124. To RRIRHRPPRLPRPRPRPRLPPRP belongs 0.131; to RRIRTRPPRLPRPRPRPFKTPRP, 0.0238. Then RRIRLRPPRLPRPRPRPFTKPRP, with -0.00525; and RRIRPRPPRLPRPRPRPEHTPRP, with -0.112; and RRIRHRPPRLPRPRPRPKWIPRP, with -0.779.

RRIRFRPPRLPRPRPRPYFNPRP: the “shrunken log2 fold change” value is -1.04. Then RRIRERPPRLPRPRPRPHTKPRP, with 0.0349; and RRIRLRPPRLPRPRPRPAFAPRP, with 0.368. To RRIRSRPPRLPRPRPRPLSIPRP belongs -0.447; to RRIRMRPPRLPRPRPRPQEFPRP, 0.284; to RRIRQRPPRLPRPRPRPRMTPRP, 0.388. Then RRIRLRPPRLPRPRPRPHPWPRP, with -0.0939; and RRIRRRPPRLPRPRPRPLSIPRP, with -0.288; and RRIRFRPPRLPRPRPRPLQNPRP, with 0.0294. Turning to RRIRARPPRLPRPRPRPTLYPRP, the “shrunken log2 fold change” value is -0.034. Then RRIRIRPPRLPRPRPRPPKLPRP, with 0.0517.

With RRIRGRPPRLPRPRPRPEHYPRP, the “shrunken log2 fold change” value is -0.0809. Then RRIRLRPPRLPRPRPRPCPKPRP, with 0.136.

With RRIRNRPPRLPRPRPRPMRKPRP, the “shrunken log2 fold change” value is 0.481. For the sequence RRIRCRPPRLPRPRPRPMLDPRP, the “shrunken log2 fold change” value turned out to be 0.0729. As for RRIRPRPPRLPRPRPRPICPPRP, the “shrunken log2 fold change” value is -0.17. To RRIRFRPPRLPRPRPRPFHTPRP belongs -0.561; to RRIRQRPPRLPRPRPRPIIYPRP, -0.858; to RRIRTRPPRLPRPRPRPGSKPRP, 0.0896.

Regarding RRIRMRPPRLPRPRPRPCNAPRP, the “shrunken log2 fold change” value amounted to 0.0226. Then RRIRSRPPRLPRPRPRPFDLPRP, with -0.419; and RRIRWRPPRLPRPRPRPYHTPRP, with -0.816; and RRIRLRPPRLPRPRPRPVCKPRP, with 0.000959. Then RRIRMRPPRLPRPRPRPAQRPRP, with 0.987.
